Measured values from patent publication EP4786492A1.

Legend:
[1] = molecular target: DLL3 endogenously expressed on NCI-H82 cells (UniProt Q9NYJ7); assay: FACS on NCI-H82 cells; antibody 0.00128 nM
[2] = molecular target: human DLL1 protein (Acro, Cat. No. DL1-H52H8) (human) (UniProt O00548); assay: ELISA, coated hDLL1; maximum over 0.1, 1, 10, 100 nM antibody
[3] = molecular target: human DLL3 protein expressed on CHO-K1 recombinant cells (human DLL3 extracellular segment fused to EpCAM transmembrane and intracellular regions) (human) (UniProt Q9NYJ7); assay: FACS, CHO-K1 hDLL3 cells, 20 nM antibody
Sequence of human DLL3 protein expressed on CHO-K1 recombinant cells (human DLL3 extracellular segment fused to EpCAM transmembrane and intracellular regions) (human) (Q9NYJ7 other isoform, or with tags, fused parts or gaps limits assumed): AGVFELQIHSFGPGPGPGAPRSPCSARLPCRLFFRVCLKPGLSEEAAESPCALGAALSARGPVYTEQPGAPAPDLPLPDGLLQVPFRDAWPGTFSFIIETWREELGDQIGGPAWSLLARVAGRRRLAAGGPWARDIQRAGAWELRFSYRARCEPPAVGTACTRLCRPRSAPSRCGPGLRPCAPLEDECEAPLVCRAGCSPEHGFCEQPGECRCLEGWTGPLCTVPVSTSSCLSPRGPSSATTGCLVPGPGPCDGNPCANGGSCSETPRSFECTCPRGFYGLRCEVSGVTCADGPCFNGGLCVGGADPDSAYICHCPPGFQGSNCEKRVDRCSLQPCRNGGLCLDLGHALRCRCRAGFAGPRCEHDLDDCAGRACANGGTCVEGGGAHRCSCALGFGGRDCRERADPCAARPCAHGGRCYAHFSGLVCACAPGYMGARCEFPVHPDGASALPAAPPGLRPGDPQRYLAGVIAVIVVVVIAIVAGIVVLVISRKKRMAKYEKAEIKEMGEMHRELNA

[4] = molecular target: mouse DLL3 on CHO-K1-mDLL3 cells (mouse) (UniProt O88516); assay: FACS, CHO-K1-mDLL3 cells, 0.032 nM antibody
Sequence of mouse DLL3 on CHO-K1-mDLL3 cells (mouse) (O88516 other isoform, or with tags, fused parts or gaps limits assumed): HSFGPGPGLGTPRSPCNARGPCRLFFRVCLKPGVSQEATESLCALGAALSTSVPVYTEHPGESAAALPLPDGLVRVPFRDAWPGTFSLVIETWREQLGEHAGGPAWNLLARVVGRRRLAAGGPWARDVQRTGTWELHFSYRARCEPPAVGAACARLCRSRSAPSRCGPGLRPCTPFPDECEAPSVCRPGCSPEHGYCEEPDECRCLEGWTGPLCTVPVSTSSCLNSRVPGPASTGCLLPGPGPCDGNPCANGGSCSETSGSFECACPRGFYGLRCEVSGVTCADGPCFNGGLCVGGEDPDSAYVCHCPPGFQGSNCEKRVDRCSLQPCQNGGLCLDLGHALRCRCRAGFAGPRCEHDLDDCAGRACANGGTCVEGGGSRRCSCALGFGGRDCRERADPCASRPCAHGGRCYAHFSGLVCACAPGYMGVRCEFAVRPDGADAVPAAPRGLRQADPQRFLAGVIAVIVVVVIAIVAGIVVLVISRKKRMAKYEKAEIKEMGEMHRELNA

[5] = molecular target: human DLL4 protein (Acro, Cat. No. DL4-H5227) (human) (UniProt Q9NR61); assay: ELISA, coated hDLL4; maximum over 0.1, 1, 10, 100 nM antibody
Sequence of human DLL4 protein (Acro, Cat. No. DL4-H5227) (human) (Q9NR61 27-524 limits assumed): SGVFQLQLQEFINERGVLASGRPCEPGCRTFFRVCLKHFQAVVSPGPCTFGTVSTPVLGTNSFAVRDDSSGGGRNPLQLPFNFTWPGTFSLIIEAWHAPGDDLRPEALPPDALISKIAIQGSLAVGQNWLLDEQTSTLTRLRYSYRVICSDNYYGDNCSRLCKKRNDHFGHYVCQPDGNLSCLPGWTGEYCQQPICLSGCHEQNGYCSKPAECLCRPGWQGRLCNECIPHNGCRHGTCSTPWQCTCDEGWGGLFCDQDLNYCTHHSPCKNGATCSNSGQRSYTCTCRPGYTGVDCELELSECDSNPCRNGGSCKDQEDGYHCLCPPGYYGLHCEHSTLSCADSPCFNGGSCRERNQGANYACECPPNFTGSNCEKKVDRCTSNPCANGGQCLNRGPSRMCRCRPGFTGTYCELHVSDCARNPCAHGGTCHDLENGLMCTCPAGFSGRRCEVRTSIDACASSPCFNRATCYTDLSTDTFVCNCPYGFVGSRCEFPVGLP

[6] = molecular target: DLL3 endogenously expressed on NCI-H82 cells (UniProt Q9NYJ7); assay: FACS on NCI-H82 cells; antibody 100 nM
[7] = molecular target: human DLL3 protein expressed on CHO-K1 recombinant cells (human DLL3 extracellular segment fused to EpCAM transmembrane and intracellular regions) (human) (UniProt Q9NYJ7); assay: FACS, CHO-K1 hDLL3 cells, 4 nM antibody
[8] = molecular target: monkey DLL3 on CHO-K1-cyno DLL3 cells (cynomolgus monkey); assay: FACS, CHO-K1-cyno DLL3 cells, 4 nM antibody
Sequence of monkey DLL3 on CHO-K1-cyno DLL3 cells (cynomolgus monkey) (chain, as listed by the source limits assumed): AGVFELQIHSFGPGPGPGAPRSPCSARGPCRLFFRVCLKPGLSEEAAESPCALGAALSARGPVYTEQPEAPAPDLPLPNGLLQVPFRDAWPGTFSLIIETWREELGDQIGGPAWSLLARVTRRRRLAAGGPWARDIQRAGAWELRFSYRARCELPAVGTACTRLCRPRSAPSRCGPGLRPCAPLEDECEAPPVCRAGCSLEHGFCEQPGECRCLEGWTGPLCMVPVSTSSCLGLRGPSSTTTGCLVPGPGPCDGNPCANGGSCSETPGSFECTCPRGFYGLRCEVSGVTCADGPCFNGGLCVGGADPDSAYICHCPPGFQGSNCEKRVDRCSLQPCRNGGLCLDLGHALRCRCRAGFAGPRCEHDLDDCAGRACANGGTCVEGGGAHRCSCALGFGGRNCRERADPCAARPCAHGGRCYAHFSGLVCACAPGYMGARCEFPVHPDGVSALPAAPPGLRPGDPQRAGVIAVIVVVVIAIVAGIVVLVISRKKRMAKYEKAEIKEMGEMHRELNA

[9] = molecular target: DLL3 endogenously expressed on NCI-H82 cells (UniProt Q9NYJ7); assay: FACS on NCI-H82 cells; antibody 4 nM
[10] = molecular target: mouse DLL3 on CHO-K1-mDLL3 cells (mouse) (UniProt O88516); assay: FACS, CHO-K1-mDLL3 cells, 4 nM antibody
[11] = molecular target: monkey DLL3 on CHO-K1-cyno DLL3 cells (cynomolgus monkey); assay: FACS, CHO-K1-cyno DLL3 cells, 0.032 nM antibody
[12] = molecular target: human DLL3 protein (extracellular segment, His tag) (human) (UniProt Q9NYJ7); assay: SPR (Biacore 8K), antibody captured on Protein A chip, DLL3 antigen in solution, 1:1 Langmuir fit
Sequence of human DLL3 protein (extracellular segment, His tag) (human) (Q9NYJ7 27-492): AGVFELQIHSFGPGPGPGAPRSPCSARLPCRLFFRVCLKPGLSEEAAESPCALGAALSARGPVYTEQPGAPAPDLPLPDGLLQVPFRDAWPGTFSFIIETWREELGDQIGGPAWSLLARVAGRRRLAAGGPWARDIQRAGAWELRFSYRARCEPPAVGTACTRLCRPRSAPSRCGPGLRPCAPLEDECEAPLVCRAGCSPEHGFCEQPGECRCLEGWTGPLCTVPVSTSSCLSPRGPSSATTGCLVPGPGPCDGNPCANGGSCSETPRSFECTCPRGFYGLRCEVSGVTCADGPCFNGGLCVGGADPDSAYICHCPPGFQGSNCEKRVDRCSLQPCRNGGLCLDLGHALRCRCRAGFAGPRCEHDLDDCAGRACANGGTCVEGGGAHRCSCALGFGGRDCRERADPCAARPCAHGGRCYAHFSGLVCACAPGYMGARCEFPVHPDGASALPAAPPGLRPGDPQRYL

[13] = molecular target: mouse DLL3 on CHO-K1-mDLL3 cells (mouse) (UniProt O88516); assay: FACS, CHO-K1-mDLL3 cells, 0.8 nM antibody
[14] = molecular target: human DLL3 protein expressed on CHO-K1 recombinant cells (human DLL3 extracellular segment fused to EpCAM transmembrane and intracellular regions) (human) (UniProt Q9NYJ7); assay: FACS, CHO-K1 hDLL3 cells, 0.8 nM antibody
[15] = molecular target: mouse DLL3 on CHO-K1-mDLL3 cells (mouse) (UniProt O88516); assay: FACS, CHO-K1-mDLL3 cells, 0.16 nM antibody
[16] = molecular target: DLL3 endogenously expressed on NCI-H82 cells (UniProt Q9NYJ7); assay: FACS on NCI-H82 cells; antibody 20 nM
[17] = molecular target: monkey DLL3 on CHO-K1-cyno DLL3 cells (cynomolgus monkey); assay: FACS, CHO-K1-cyno DLL3 cells, 0.0064 nM antibody
[18] = molecular target: human DLL3 protein expressed on CHO-K1 recombinant cells (human DLL3 extracellular segment fused to EpCAM transmembrane and intracellular regions) (human) (UniProt Q9NYJ7); assay: FACS, CHO-K1 hDLL3 cells, 0.032 nM antibody
[19] = molecular target: monkey DLL3 on CHO-K1-cyno DLL3 cells (cynomolgus monkey); assay: FACS, CHO-K1-cyno DLL3 cells, 100 nM antibody
[20] = molecular target: mouse DLL3 on CHO-K1-mDLL3 cells (mouse) (UniProt O88516); assay: FACS, CHO-K1-mDLL3 cells, 0.0064 nM antibody
[21] = molecular target: mouse DLL3 on CHO-K1-mDLL3 cells (mouse) (UniProt O88516); assay: FACS, CHO-K1-mDLL3 cells, 0.00128 nM antibody
[22] = molecular target: monkey DLL3 on CHO-K1-cyno DLL3 cells (cynomolgus monkey); assay: FACS, CHO-K1-cyno DLL3 cells, 0.8 nM antibody
[23] = molecular target: mouse DLL3 on CHO-K1-mDLL3 cells (mouse) (UniProt O88516); assay: FACS, CHO-K1-mDLL3 cells, 20 nM antibody
[24] = molecular target: DLL3 endogenously expressed on NCI-H82 cells (UniProt Q9NYJ7); assay: FACS on NCI-H82 cells; antibody 0.16 nM
[25] = molecular target: monkey DLL3 on CHO-K1-cyno DLL3 cells (cynomolgus monkey); assay: FACS, CHO-K1-cyno DLL3 cells, 0.16 nM antibody
[26] = molecular target: monkey DLL3 on CHO-K1-cyno DLL3 cells (cynomolgus monkey); assay: FACS, CHO-K1-cyno DLL3 cells, 0.00128 nM antibody
[27] = molecular target: mouse DLL3 on CHO-K1-mDLL3 cells (mouse) (UniProt O88516); assay: FACS, CHO-K1-mDLL3 cells, 100 nM antibody
[28] = molecular target: human DLL3 protein expressed on CHO-K1 recombinant cells (human DLL3 extracellular segment fused to EpCAM transmembrane and intracellular regions) (human) (UniProt Q9NYJ7); assay: FACS, CHO-K1 hDLL3 cells, 0.0064 nM antibody
[29] = molecular target: DLL3 endogenously expressed on NCI-H82 cells (UniProt Q9NYJ7); assay: FACS on NCI-H82 cells; antibody 0.8 nM
[30] = molecular target: DLL3 endogenously expressed on NCI-H82 cells (UniProt Q9NYJ7); assay: FACS on NCI-H82 cells; antibody 0.032 nM
[31] = molecular target: human DLL3 protein expressed on CHO-K1 recombinant cells (human DLL3 extracellular segment fused to EpCAM transmembrane and intracellular regions) (human) (UniProt Q9NYJ7); assay: FACS, CHO-K1 hDLL3 cells, 0.00128 nM antibody
[32] = molecular target: human DLL3 protein expressed on CHO-K1 recombinant cells (human DLL3 extracellular segment fused to EpCAM transmembrane and intracellular regions) (human) (UniProt Q9NYJ7); assay: FACS, CHO-K1 hDLL3 cells, 0.16 nM antibody
[33] = molecular target: DLL3 endogenously expressed on NCI-H82 cells (UniProt Q9NYJ7); assay: FACS on NCI-H82 cells; antibody 0.0064 nM
[34] = molecular target: monkey DLL3 on CHO-K1-cyno DLL3 cells (cynomolgus monkey); assay: FACS, CHO-K1-cyno DLL3 cells, 20 nM antibody
[35] = molecular target: human DLL3 protein expressed on CHO-K1 recombinant cells (human DLL3 extracellular segment fused to EpCAM transmembrane and intracellular regions) (human) (UniProt Q9NYJ7); assay: FACS, CHO-K1 hDLL3 cells, 100 nM antibody
[36] = molecular target: human delta-like ligand 3 (DLL3) on SHP77 cells (human) (UniProt Q9NYJ7); assay: FACS on SHP77 cells
Sequence of human delta-like ligand 3 (DLL3) on SHP77 cells (human) (Q9NYJ7 27-618, stated change not applied): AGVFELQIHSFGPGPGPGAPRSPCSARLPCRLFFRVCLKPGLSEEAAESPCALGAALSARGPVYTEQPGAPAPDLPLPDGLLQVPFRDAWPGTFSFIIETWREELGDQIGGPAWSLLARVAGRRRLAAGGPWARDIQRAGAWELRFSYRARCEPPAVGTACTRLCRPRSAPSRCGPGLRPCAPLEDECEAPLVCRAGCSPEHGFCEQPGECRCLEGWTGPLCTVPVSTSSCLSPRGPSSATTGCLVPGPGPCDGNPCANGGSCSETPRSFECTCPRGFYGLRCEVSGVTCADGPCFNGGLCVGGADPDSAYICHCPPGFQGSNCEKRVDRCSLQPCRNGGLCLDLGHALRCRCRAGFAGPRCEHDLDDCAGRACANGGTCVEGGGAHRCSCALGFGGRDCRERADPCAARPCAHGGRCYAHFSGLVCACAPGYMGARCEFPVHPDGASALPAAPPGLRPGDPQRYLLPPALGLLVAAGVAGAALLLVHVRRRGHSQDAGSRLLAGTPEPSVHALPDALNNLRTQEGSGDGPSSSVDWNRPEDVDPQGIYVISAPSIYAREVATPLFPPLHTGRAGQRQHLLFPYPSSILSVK

Sequence of DLL3 endogenously expressed on NCI-H82 cells (Q9NYJ7 27-618): as the sequence (Q9NYJ7 27-618, stated change not applied) above
Sequence of human DLL1 protein (Acro, Cat. No. DL1-H52H8) (human) (O00548 18-540 limits assumed): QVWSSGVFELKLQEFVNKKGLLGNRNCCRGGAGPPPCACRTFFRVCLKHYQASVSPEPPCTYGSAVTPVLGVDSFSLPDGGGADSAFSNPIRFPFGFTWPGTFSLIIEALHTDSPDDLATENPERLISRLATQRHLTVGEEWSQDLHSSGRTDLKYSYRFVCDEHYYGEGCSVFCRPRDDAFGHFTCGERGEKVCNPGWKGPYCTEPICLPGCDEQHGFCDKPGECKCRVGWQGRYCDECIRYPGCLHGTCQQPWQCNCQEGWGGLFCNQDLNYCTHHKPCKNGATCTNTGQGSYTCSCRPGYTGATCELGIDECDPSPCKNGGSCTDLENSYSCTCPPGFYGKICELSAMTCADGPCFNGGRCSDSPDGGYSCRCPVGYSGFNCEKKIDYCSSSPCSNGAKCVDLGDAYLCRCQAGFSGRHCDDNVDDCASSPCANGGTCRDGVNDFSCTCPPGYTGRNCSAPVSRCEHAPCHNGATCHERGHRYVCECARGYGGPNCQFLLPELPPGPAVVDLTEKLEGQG

B1: Hab014VL2VH1-hFc (scFv, part only; not given: scFv linker and human IgG1 Fc, V domains shown, not shown: another chain or arm of the molecule; a dimerising Fc or GST; small tags and cut ends)
VL: DIQMTQSPSSLSASVGDRVTITCKASEDIYNRLAWYQQKPGKVPKLLISGATSLETGVPSRFSGSGSGKDFTLTISSLQPEDVATYYCQQYWSLPWTFGGGTKVEIK
VH: EVQLVQSGAEVKKPGASVKVSCKASGYTFTDYYMNWVRQAPGQRLEWMGDINPNHGDTGYNQKFTGRVTITVDKSASTAYMELSSLRSEDTAVYYCARNFFYYGTTYGWYFDVWGQGTTVTVSS
B1 showed an MFI [1] of 113, an Emax of OD450 nm binding value [2] of 0.17 OD450 nm and an MFI [3] of 16100 MFI. It also gave an MFI [4] of 152 MFI, an Emax of OD450 nm binding value [5] of 0.25 OD450 nm and an MFI [6] of 1110. It also gave an MFI [7] of 15400 MFI, an MFI [8] of 25300 MFI and an MFI [9] of 624. For the same binder, the MFI [10] was 308 MFI, the MFI [11] was 661 MFI and the Kd [12] was 0.111 nM. It also gave a koff [12] of 0.000135 s⁻¹, a kon [12] of 1.21e+06 M⁻¹ s⁻¹ and an MFI [13] of 272 MFI. It also gave an MFI [14] of 8420 MFI, an MFI [15] of 204 MFI and an MFI [16] of 754. The MFI [17] was 287 MFI, the MFI [18] was 705 MFI and the MFI [19] was 33000 MFI. For the same binder, the MFI [20] was 118 MFI, the MFI [21] was 109 MFI and the MFI [22] was 10100 MFI. It also gave an MFI [23] of 355 MFI, an MFI [24] of 428 and an MFI [25] of 1670 MFI. For the same binder, the MFI [26] was 200 MFI, the MFI [27] was 374 MFI and the MFI [28] was 322 MFI. The MFI [29] was 554, the MFI [30] was 217 and the MFI [31] was 231 MFI. It also gave an MFI [32] of 2380 MFI, an MFI [33] of 142 and an MFI [34] of 33000 MFI. For the same binder, the MFI [35] was 16400 MFI, the MFI at 0.00128 nM [36] was 91 MFI and the MFI at 0.0064 nM [36] was 99 MFI. The MFI at 0.032 nM [36] was 120 MFI, the MFI at 0.16 nM [36] was 207 MFI and the MFI at 0.8 nM [36] was 407 MFI. The MFI at 4 nM [36] was 610 MFI, the MFI at 20 nM [36] was 796 MFI and the MFI at 100 nM [36] was 1110 MFI.

B2: Hab014VL3VH1-hFc (scFv, part only; not given: VL-VH linker and human IgG1 Fc, V domains shown, not shown: another chain or arm of the molecule; a dimerising Fc or GST; small tags and cut ends)
VL: DIVMTQSPDSLAVSLGERATINCKASEDIYNRLAWYQQKPGQTPKLLISGATSLETGVPDRFSGSGSGKDFTLTISSLQAEDVAVYYCQQYWSLPWTFGGGTKVEIK
VH: B1 VH
Binder B2 has an MFI [1] of 108, an Emax of OD450 nm binding value [2] of 0.08 OD450 nm and an MFI [3] of 15700 MFI. It also gave an MFI [4] of 137 MFI, an Emax of OD450 nm binding value [5] of 0.1 OD450 nm and an MFI [6] of 1030. It also gave an MFI [7] of 15300 MFI, an MFI [8] of 27700 MFI and an MFI [9] of 596. For the same binder, the MFI [10] was 296 MFI, the MFI [11] was 565 MFI and the Kd [12] was 0.0946 nM. For the same binder, the koff [12] was 0.000129 s⁻¹, the kon [12] was 1.36e+06 M⁻¹ s⁻¹ and the MFI [13] was 253 MFI. It also gave an MFI [14] of 7320 MFI, an MFI [15] of 192 MFI and an MFI [16] of 732. For the same binder, the MFI [17] was 245 MFI, the MFI [18] was 555 MFI and the MFI [19] was 33900 MFI. The MFI [20] was 110 MFI, the MFI [21] was 103 MFI and the MFI [22] was 8680 MFI. The MFI [23] was 332 MFI, the MFI [24] was 356 and the MFI [25] was 1730 MFI. For the same binder, the MFI [26] was 180 MFI, the MFI [27] was 382 MFI and the MFI [28] was 299 MFI. For the same binder, the MFI [29] was 547, the MFI [30] was 178 and the MFI [31] was 207 MFI. For the same binder, the MFI [32] was 2060 MFI, the MFI [33] was 125 and the MFI [34] was 32500 MFI. For the same binder, the MFI [35] was 16500 MFI, the MFI at 0.00128 nM [36] was 91 MFI and the MFI at 0.0064 nM [36] was 96 MFI. The MFI at 0.032 nM [36] was 112 MFI, the MFI at 0.16 nM [36] was 179 MFI and the MFI at 0.8 nM [36] was 348 MFI. The MFI at 4 nM [36] was 567 MFI, the MFI at 20 nM [36] was 770 MFI and the MFI at 100 nM [36] was 1120 MFI.
